Reference: patent publication CN114805579A (UNIV ZHENGZHOU, dated 2022)

What was measured:
人ACE2 (293T-hACE2细胞表面) = 人ACE2 (293T-hACE2细胞表面) (human, UniProt Q9BYF1 18-805); assay: cell-based or functional assay
[1] = target: hACE2-ecto重组蛋白 (人ACE2胞外区, C端6×His标签) (human, UniProt Q9BYF1 18-740)
Sequence of hACE2-ecto重组蛋白 (人ACE2胞外区, C端6×His标签) (Q9BYF1 other isoform, or with tags, fused parts or gaps): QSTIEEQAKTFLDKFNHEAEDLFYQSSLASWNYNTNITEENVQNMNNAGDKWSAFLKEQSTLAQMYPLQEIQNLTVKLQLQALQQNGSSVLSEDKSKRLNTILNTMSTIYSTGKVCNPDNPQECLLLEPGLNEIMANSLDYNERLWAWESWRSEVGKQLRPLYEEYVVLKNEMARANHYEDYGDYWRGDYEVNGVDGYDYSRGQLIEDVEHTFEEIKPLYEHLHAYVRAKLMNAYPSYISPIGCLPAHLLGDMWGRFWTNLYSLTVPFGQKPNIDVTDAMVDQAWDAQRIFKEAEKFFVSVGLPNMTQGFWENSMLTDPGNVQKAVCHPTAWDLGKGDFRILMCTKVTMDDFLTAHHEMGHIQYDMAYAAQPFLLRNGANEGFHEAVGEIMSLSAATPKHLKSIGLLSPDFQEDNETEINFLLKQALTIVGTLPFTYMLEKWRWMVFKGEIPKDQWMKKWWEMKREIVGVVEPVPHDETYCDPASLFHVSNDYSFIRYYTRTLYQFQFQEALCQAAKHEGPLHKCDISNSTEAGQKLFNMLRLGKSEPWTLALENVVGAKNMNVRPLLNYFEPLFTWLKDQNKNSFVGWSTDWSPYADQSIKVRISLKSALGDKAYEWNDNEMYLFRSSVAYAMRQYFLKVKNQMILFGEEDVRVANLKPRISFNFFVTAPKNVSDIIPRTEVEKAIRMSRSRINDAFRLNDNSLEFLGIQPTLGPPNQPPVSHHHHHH

Sequence of 人ACE2 (293T-hACE2细胞表面) (Q9BYF1 18-805): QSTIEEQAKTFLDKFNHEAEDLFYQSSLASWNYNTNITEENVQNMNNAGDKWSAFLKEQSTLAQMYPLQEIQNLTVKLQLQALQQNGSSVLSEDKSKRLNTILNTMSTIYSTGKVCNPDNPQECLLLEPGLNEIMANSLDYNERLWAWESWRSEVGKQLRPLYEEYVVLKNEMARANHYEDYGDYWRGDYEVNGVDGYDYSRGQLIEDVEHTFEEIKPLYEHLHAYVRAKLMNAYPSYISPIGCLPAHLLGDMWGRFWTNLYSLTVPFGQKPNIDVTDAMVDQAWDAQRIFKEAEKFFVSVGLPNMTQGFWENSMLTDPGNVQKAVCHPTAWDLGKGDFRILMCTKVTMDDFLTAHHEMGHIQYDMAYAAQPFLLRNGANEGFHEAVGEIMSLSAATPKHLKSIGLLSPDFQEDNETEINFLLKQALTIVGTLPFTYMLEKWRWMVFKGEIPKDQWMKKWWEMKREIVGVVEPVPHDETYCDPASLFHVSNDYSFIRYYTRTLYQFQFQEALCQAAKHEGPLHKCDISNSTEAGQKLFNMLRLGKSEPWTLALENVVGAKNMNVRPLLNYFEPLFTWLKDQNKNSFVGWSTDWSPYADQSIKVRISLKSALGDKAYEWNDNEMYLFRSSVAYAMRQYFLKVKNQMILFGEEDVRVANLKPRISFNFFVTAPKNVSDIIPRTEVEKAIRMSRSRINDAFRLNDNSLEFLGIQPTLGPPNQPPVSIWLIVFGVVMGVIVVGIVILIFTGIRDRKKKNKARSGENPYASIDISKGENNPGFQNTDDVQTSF

B1: 抗人ACE2蛋白单克隆抗体2D6 (antibody, V domains shown)
VH: EVKLVESGGGLVQPGGSLRLSCATSGFTFTDYYMSWVRQPPGKALEWLGFIRNRPNDYTTEYSASVKGRFTISRDNSQSILYLQMNTLRAEDSATYYCARDRGLRQAMDYWGQGTSVTVSS
VL: QIVLTQSPAIMSASPGEKVTMTCTASSSVTYMHWYQQKSGTSPKRWIYDTSKLASGVPGRFSGSGSGTSYSLTISSMEAEDAATYFCQQWSFNPLTFGSGTKLEIK
With B1 the “假病毒阻断试验 IC50, SARS-CoV-2 Delta(B.1.617.2)假病毒感染293T-hACE2细胞 (荧光素酶活性)” value (人ACE2 (293T-hACE2细胞表面)) was 0.346 µg/mL, the “假病毒阻断试验 IC50, SARS-CoV-2 Omicron(B.1.1.529)假病毒感染293T-hACE2细胞 (荧光素酶活性)” value (人ACE2 (293T-hACE2细胞表面)) was 0.139 µg/mL and the “假病毒阻断试验 IC50, SARS-CoV-2野生型(Wuhan-1)假病毒感染293T-hACE2细胞 (荧光素酶活性)” value (人ACE2 (293T-hACE2细胞表面)) was 0.164 µg/mL. The EC50 [1] was 8.41 ng/mL.
